For this data set, the target named is T1, MBP from bovine brain (Sigma), P02687.
T1 chain: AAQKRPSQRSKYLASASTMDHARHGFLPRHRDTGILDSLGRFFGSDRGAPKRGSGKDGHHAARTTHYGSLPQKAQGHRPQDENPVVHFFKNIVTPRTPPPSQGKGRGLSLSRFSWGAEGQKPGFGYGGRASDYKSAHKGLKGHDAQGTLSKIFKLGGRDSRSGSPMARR

B1: human ERK5 (hERK5) wild type protein (protein)
chain: MSSPPPGGSGFYRQEVTKTAWEVRAVYRDLQPVGSGAYGAVCSAVDGRTGAKVAIKKLYRPFGSELFAKLAYRELRLLKHMRHENVIGLLDVFTPDETLDDFTDFYLVMPFMGTDLGKLMKHEKLGEDRIQFLVYQMMKGLRYIHAAGIIHRDLKPGNLAVNEDCELKILDFGLARQADSEMTGYVVTRWYRAPEVILNWIAYTQTVDIWSVGCIMAEMITGKTLFKGSDHLDQLKEIMKVTGTPPAEFVQRLQSDEAKNYMKGLPELEKKDFASILTNASPLAVNLLEKMLVLDADIRLTAGEFLSHPYFESLHDTEDEPQVQKYDDSFDYFDRTLDEWKPCYLQRGAQLQASPAAGGQGLQGDASVKISGLRGGSEDHLHLPPERGLSLPP
Take B1: the “MBP kinase activity (32P incorporation in MBP-containing polyacrylamide gel)” value is listed as “A predominant signal is observed at 56 kD; A weaker signal at the position of the 44/46 kD bands”.

B2: hERK5 Y185F mutant (protein)
chain: MSSPPPGGSGFYRQEVTKTAWEVRAVYRDLQPVGSGAYGAVCSAVDGRTGAKVAIKKLYRPFGSELFAKLAYRELRLLKHMRHENVIGLLDVFTPDETLDDFTDFYLVMPFMGTDLGKLMKHEKLGEDRIQFLVYQMMKGLRYIHAAGIIHRDLKPGNLAVNEDCELKILDFGLARQADSEMTGFVVTRWYRAPEVILNWIAYTQTVDIWSVGCIMAEMITGKTLFKGSDHLDQLKEIMKVTGTPPAEFVQRLQSDEAKNYMKGLPELEKKDFASILTNASPLAVNLLEKMLVLDADIRLTAGEFLSHPYFESLHDTEDEPQVQKYDDSFDYFDRTLDEWKPCYLQRGAQLQASPAAGGQGLQGDASVKISGLRGGSEDHLHLPPERGLSLPP
On to B2, for which the “MBP kinase activity (32P incorporation in MBP-containing polyacrylamide gel)” value is “the lack of ^32P incorporation in lanes 5 and 6”; the MBP phosphorylation assay result is reported as “this mutant is indeed kinase negative”.

Source of the values: patent US7371828.
